In the test the target is T1, mouse LY6A (mouse, UniProt P05533 27-112).
T1 construct: whole, on cells
T1 sequence: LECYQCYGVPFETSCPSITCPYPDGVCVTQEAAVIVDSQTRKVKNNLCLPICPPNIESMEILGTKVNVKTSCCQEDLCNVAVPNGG
The experiment in a line: AAV binding to LY6A-transfected HEK293T cells on ice, bound viral genomes counted by qPCR. In general terms: Real-time PCR tracks product formation cycle by cycle.

B1: AAV.CPP.16 (other)
chain: MAADGYLPDWLEDNLSEGIREWWALKPGAPQPKANQQHQDNARGLVLPGYKYLGPGNGLDKGEPVNAADAAALEHDKAYDQQLKAGDNPYLKYNHADAEFQERLKEDTSFGGNLGRAVFQAKKRLLEPLGLVEEAAKTAPGKKRPVEQSPQEPDSSAGIGKSGAQPAKKRLNFGQTGDTESVPDPQPIGEPPAAPSGVGSLTMASGGGAPVADNNEGADGVGSSSGNWHCDSQWLGDRVITTSTRTWALPTYNNHLYKQISNSTSGGSSNDNAYFGYSTPWGYFDFNRFHCHFSPRDWQRLINNNWGFRPKRLNFKLFNIQVKEVTDNNGVKTIANNLTSTVQVFTDSDYQLPYVLGSAHEGCLPPFPADVFMIPQYGYLTLNDGSQAVGRSSFYCLEYFPSQMLRTGNNFQFSYEFENVPFHSSYAHSQSLDRLMNPLIDQYLYYLSKTINGSGQNQQTLKFSVAGPSNMAVQGRNYIPGPSYRQQRVSTTVTQNNNSEFAWPGASSWALNGRNSLMNPGPAMASHKEGEDRFFPLSGSLIFGKQGTGRDNVDADKVMITNEEEIKTTNPVATESYGQVATNHQSAQTVSALKAQAQTGWVQNQGILPGMVWQDRDVYLQGPIWAKIPHTDGNFHPSPLMGGFGMKHPPPQILIKNTPVPADPPTAFNKDKLNSFITQYSTGQVSVEIEWELQKENSKRWNPEIQYTSNYYKSNNVEFAVNTEGVYSEPRPIGTRYLTRNL
notes: Whole recombinant AAV particle in the assay; also called Bip2.1 insert TVSALK
With B1, the binding result is “no binding (tested: MOI of 10000)”.

B2: AAV.CPP.21 (other)
chain: MAADGYLPDWLEDNLSEGIREWWALKPGAPQPKANQQHQDNARGLVLPGYKYLGPGNGLDKGEPVNAADAAALEHDKAYDQQLKAGDNPYLKYNHADAEFQERLKEDTSFGGNLGRAVFQAKKRLLEPLGLVEEAAKTAPGKKRPVEQSPQEPDSSAGIGKSGAQPAKKRLNFGQTGDTESVPDPQPIGEPPAAPSGVGSLTMASGGGAPVADNNEGADGVGSSSGNWHCDSQWLGDRVITTSTRTWALPTYNNHLYKQISNSTSGGSSNDNAYFGYSTPWGYFDFNRFHCHFSPRDWQRLINNNWGFRPKRLNFKLFNIQVKEVTDNNGVKTIANNLTSTVQVFTDSDYQLPYVLGSAHEGCLPPFPADVFMIPQYGYLTLNDGSQAVGRSSFYCLEYFPSQMLRTGNNFQFSYEFENVPFHSSYAHSQSLDRLMNPLIDQYLYYLSKTINGSGQNQQTLKFSVAGPSNMAVQGRNYIPGPSYRQQRVSTTVTQNNNSEFAWPGASSWALNGRNSLMNPGPAMASHKEGEDRFFPLSGSLIFGKQGTGRDNVDADKVMITNEEEIKTTNPVATESYGQVATNHQSAQTVSALFKAQAQTGWVQNQGILPGMVWQDRDVYLQGPIWAKIPHTDGNFHPSPLMGGFGMKHPPPQILIKNTPVPADPPTAFNKDKLNSFITQYSTGQVSVEIEWELQKENSKRWNPEIQYTSNYYKSNNVEFAVNTEGVYSEPRPIGTRYLTRNL
notes: Whole recombinant AAV particle in the assay; also called Bip2.6 insert TVSALFK
B2: the binding result was “no binding (tested: MOI of 10000)”.

Values taken from patent publication US20250074949A1 (BRIGHAM AND WOMEN S HOSPITAL, published 2025).
